The results in this text go back to article PMC3977929, “Affinity- and Specificity-Enhancing Mutations Are Frequent in Multispecific Interactions between TIMP2 and MMPs” (PLoS ONE, 2014).

The target of experiment [1] is T1, MMP14 catalytic domain (UniProt P50281 112-285).
T1 construct: Matrix Metalloproteinase 14 (MMP14), catalytic domain; source: expressed recombinantly and purified as published before [12]
The experiment is described as follows: enzyme activity (inhibition) assay with a fluorogenic substrate; various concentrations of N-TIMP2 pre-incubated 1 hour with MMP9 (0.2 nM) or MMP14 (0.5 nM) in 50 mM Tris-HCl, 0.15 M NaCl, 10 mM CaCl2, 0.02% Brij 35, pH 7.5, 37°C; fraction of enzyme activity fitted to a 1:1 binding model to give Kd. Particulars: both partners purified.

In experiment [2] the target is T2, MMP9 catalytic domain (UniProt P14780 107-444).
T2 construct: Matrix Metalloproteinase 9 (MMP9), catalytic domain; source: expressed recombinantly and purified as published before [12]
T2 sequence (P14780 107-444): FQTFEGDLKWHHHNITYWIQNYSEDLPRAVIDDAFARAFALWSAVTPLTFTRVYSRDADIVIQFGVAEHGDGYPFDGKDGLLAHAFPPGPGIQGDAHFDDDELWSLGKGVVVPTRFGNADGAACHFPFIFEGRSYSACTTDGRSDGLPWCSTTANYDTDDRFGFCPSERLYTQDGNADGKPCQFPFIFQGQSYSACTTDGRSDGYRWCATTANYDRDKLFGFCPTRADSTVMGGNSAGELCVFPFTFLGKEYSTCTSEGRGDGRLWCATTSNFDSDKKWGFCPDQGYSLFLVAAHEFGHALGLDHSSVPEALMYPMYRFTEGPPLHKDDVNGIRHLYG
Described as above. Particulars: both partners purified.

B1: N-TIMP2 WT (N-terminal domain of Tissue Inhibitor of Metalloproteinases 2, residues 1-127) (domain or fragment, human, UniProt P16035 27-153, looked up)
chain: CSCSPVHPQQAFCNADVVIRAKAVSEKEVDSGNDIYGNPIKRIQYEIKQIKMFKGPEKDIEFIYTAPSSAVCGVSLDVGGKKEYLIAGKAEGDGKMHITLCDFIVPWDTLSTTQKKSLNHRYQMGCE
notes: Monomeric fraction used; also called WT N-TIMP2
Regarding B1, the dissociation constant (Kd) (as a rule, the free concentration of one partner at which half of the binding sites on the other are occupied at equilibrium, for simple one-to-one binding) is 4.5 nM in experiment [1] and 0.9 nM in experiment [2].

B2: N-TIMP2 N38Q (domain or fragment, human, UniProt P16035 27-153, looked up)
chain: CSCSPVHPQQAFCNADVVIRAKAVSEKEVDSGNDIYGQPIKRIQYEIKQIKMFKGPEKDIEFIYTAPSSAVCGVSLDVGGKKEYLIAGKAEGDGKMHITLCDFIVPWDTLSTTQKKSLNHRYQMGCE
notes: TIMP2, human, N-terminal domain, residues 1-127
Turning to B2, the Kd is 3.4 nM in experiment [1] and 2.4 nM in experiment [2].

B3: N-TIMP2 S4R (domain or fragment, human, UniProt P16035 27-153, looked up)
chain: CSCRPVHPQQAFCNADVVIRAKAVSEKEVDSGNDIYGNPIKRIQYEIKQIKMFKGPEKDIEFIYTAPSSAVCGVSLDVGGKKEYLIAGKAEGDGKMHITLCDFIVPWDTLSTTQKKSLNHRYQMGCE
notes: TIMP2, human, N-terminal domain, residues 1-127; also called S04R
Turning to B3, the Kd in experiment [1] is 2.7 nM; in experiment [2], 0.55 nM.

B4: N-TIMP2 I35K (domain or fragment, human, UniProt P16035 27-153, looked up)
chain: CSCSPVHPQQAFCNADVVIRAKAVSEKEVDSGNDKYGNPIKRIQYEIKQIKMFKGPEKDIEFIYTAPSSAVCGVSLDVGGKKEYLIAGKAEGDGKMHITLCDFIVPWDTLSTTQKKSLNHRYQMGCE
notes: as for B2
Take B4: the dissociation constant Kd in experiment [1] is 0.38 nM; in experiment [2] it was 0.58 nM.

B5: N-TIMP2 S68Y (domain or fragment, human, UniProt P16035 27-153, looked up)
chain: CSCSPVHPQQAFCNADVVIRAKAVSEKEVDSGNDIYGNPIKRIQYEIKQIKMFKGPEKDIEFIYTAPYSAVCGVSLDVGGKKEYLIAGKAEGDGKMHITLCDFIVPWDTLSTTQKKSLNHRYQMGCE
notes: as for B2
Consider B5, for which the results for the equilibrium dissociation constant (Kd) in experiment [1] and in experiment [2] were 1.1 nM and 0.8 nM, respectively.

B6: N-TIMP2 H97R (domain or fragment, human, UniProt P16035 27-153, looked up)
chain: CSCSPVHPQQAFCNADVVIRAKAVSEKEVDSGNDIYGNPIKRIQYEIKQIKMFKGPEKDIEFIYTAPSSAVCGVSLDVGGKKEYLIAGKAEGDGKMRITLCDFIVPWDTLSTTQKKSLNHRYQMGCE
notes: as for B2
Turning to B6, the results for the Kd in experiment [1] and in experiment [2] were 0.32 nM and 0.5 nM, respectively.

B7: N-TIMP2 V6R (domain or fragment, human, UniProt P16035 27-153, looked up)
chain: CSCSPRHPQQAFCNADVVIRAKAVSEKEVDSGNDIYGNPIKRIQYEIKQIKMFKGPEKDIEFIYTAPSSAVCGVSLDVGGKKEYLIAGKAEGDGKMHITLCDFIVPWDTLSTTQKKSLNHRYQMGCE
notes: TIMP2, human, N-terminal domain, residues 1-127; also called V06R
Turning to B7, the Kd came to 1.3 nM in experiment [1] and 0.5 nM in experiment [2].

B8: N-TIMP2 S4E (domain or fragment, human, UniProt P16035 27-153, looked up)
chain: CSCEPVHPQQAFCNADVVIRAKAVSEKEVDSGNDIYGNPIKRIQYEIKQIKMFKGPEKDIEFIYTAPSSAVCGVSLDVGGKKEYLIAGKAEGDGKMHITLCDFIVPWDTLSTTQKKSLNHRYQMGCE
notes: TIMP2, human, N-terminal domain, residues 1-127; also called S04E
Consider B8, for which the Kd in experiment [1] was 9.5 nM; in experiment [2], 15.5 nM.

B9: N-TIMP2 V71N (domain or fragment, human, UniProt P16035 27-153, looked up)
chain: CSCSPVHPQQAFCNADVVIRAKAVSEKEVDSGNDIYGNPIKRIQYEIKQIKMFKGPEKDIEFIYTAPSSANCGVSLDVGGKKEYLIAGKAEGDGKMHITLCDFIVPWDTLSTTQKKSLNHRYQMGCE
notes: as for B2
As to B9, the values for the dissociation constant (Kd) in experiment [1] and in experiment [2] were 6.5 nM and 4.68 nM, respectively.

B10: N-TIMP2 I35E (domain or fragment, human, UniProt P16035 27-153, looked up)
chain: CSCSPVHPQQAFCNADVVIRAKAVSEKEVDSGNDEYGNPIKRIQYEIKQIKMFKGPEKDIEFIYTAPSSAVCGVSLDVGGKKEYLIAGKAEGDGKMHITLCDFIVPWDTLSTTQKKSLNHRYQMGCE
notes: as for B2
For B10, the equilibrium dissociation constant (Kd) is 5.4 nM in experiment [1] and 2.5 nM in experiment [2].

B11: N-TIMP2 S68W (domain or fragment, human, UniProt P16035 27-153, looked up)
chain: CSCSPVHPQQAFCNADVVIRAKAVSEKEVDSGNDIYGNPIKRIQYEIKQIKMFKGPEKDIEFIYTAPWSAVCGVSLDVGGKKEYLIAGKAEGDGKMHITLCDFIVPWDTLSTTQKKSLNHRYQMGCE
notes: as for B2
Consider B11, for which the equilibrium dissociation constant (Kd) stood at 0.91 nM in experiment [1] and 0.37 nM in experiment [2].

B12: N-TIMP2 S4Q (domain or fragment, human, UniProt P16035 27-153, looked up)
chain: CSCQPVHPQQAFCNADVVIRAKAVSEKEVDSGNDIYGNPIKRIQYEIKQIKMFKGPEKDIEFIYTAPSSAVCGVSLDVGGKKEYLIAGKAEGDGKMHITLCDFIVPWDTLSTTQKKSLNHRYQMGCE
notes: TIMP2, human, N-terminal domain, residues 1-127; also called S04Q
For B12, the Kd in experiment [1] turned out to be 1.9 nM; in experiment [2] it was 1.39 nM.

B13: N-TIMP2 S4A (domain or fragment, human, UniProt P16035 27-153, looked up)
chain: CSCAPVHPQQAFCNADVVIRAKAVSEKEVDSGNDIYGNPIKRIQYEIKQIKMFKGPEKDIEFIYTAPSSAVCGVSLDVGGKKEYLIAGKAEGDGKMHITLCDFIVPWDTLSTTQKKSLNHRYQMGCE
notes: as for B2
As for B13, the Kd is 1.4 nM in experiment [1] and 0.85 nM in experiment [2].

B14: N-TIMP2 T99Y (domain or fragment, human, UniProt P16035 27-153, looked up)
chain: CSCSPVHPQQAFCNADVVIRAKAVSEKEVDSGNDIYGNPIKRIQYEIKQIKMFKGPEKDIEFIYTAPSSAVCGVSLDVGGKKEYLIAGKAEGDGKMHIYLCDFIVPWDTLSTTQKKSLNHRYQMGCE
notes: as for B2
As for B14, the equilibrium dissociation constant (Kd) is 1.05 nM in experiment [1] and 1.1 nM in experiment [2].
